# Measurements published in the supplement of paper PMC12764529.
# ± gives the half width of the 95% confidence interval.
# Legend:
# [1] = folding stability dG unfold from trypsin proteolysis; higher = more stable
# Outline: (§1)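 Sequencing followed digestion of designed mini-proteins with trypsin and chymotrypsin, each at 11 concentrations in threefold dilutions together with a no-protease condition. The mini-proteins were under 80 residues, had no cysteine, sat in a PA-tagged cDNA display construct, and were kept only if AlphaFold2 dimer inter-PAE was above 15. From the counts, Bayesian fitting gave K50, and unfolding free energy was derived against a sequence-predicted unfolded-state K50 and a shared folded-state K50, per protease or combined.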
# [2] = folding stability dG unfold from chymotrypsin proteolysis; higher = more stable
# Outline: as §1
# [3] = folding stability dG unfold (combined trypsin and chymotrypsin); higher = more stable
# Outline: as §1
Sequence,folding stability dG unfold [1] [kcal/mol],folding stability dG unfold [2] [kcal/mol],folding stability dG unfold [3] [kcal/mol]
SAGGSMPVEIKLLEEEVLPDGVTIKKVKAEDGSEMTVTVTKLPGNTYKVTITNPANGTTSTFTLPESAGGSA [r2_361_JUSTAS],0.932 ± 0.035,1.73 ± 0.055,1.45 ± 0.077
SAGGSMRITKIEIEPNPNGDYKITITMTENGHITVEVMNPNGKPKEVEVNMPNGDPEEVVKEAIKASAGGSA [r2_298_TrROS],0.686 ± 0.041,2.25 ± 0.1,1.63 ± 0.083
SAGGSMRLVERTFVPVKTFTFLSTFNLIQPPGVPVPTFTTLTVVFTPVFTRLVEVVTEPPGRVVEVLLSAGG [r13_148_JUSTAS],3.73 ± 0.15,4.33 ± 0.13,4.06 ± 0.21
SAGGSMSLEEIKKLEIELEKEEGEKLKAEVTVLPDGKLFVRVNGKLFEIDLKTGKIVEVKELPPDESAGGSA [r2_374_TrROS_Hall],2.49 ± 0.19,2.38 ± 0.057,2.47 ± 0.21
SAGGSMSPEEKARKLAEELRKKLPPGAKVRIKVEVDGKTYEIEIEPGEEIEFPPGEKVKIVEIEVESAGGSA [r2_391_TrROS_Hall],3.12 ± 0.16,2.82 ± 0.2,2.98 ± 0.3
SAGGSMTAPVKVLIKVPPNIPLSDIVKKLSAIPGIGAKPISYDPETGYALVDIGATDPEALKEAIGSAGGSA [r2_305_TrMRF],1.67 ± 0.057,2 ± 0.029,1.9 ± 0.057
SAGGSMTFEIVEVTYDEETDEVTVRVRLPNGEVVTLSAEEIEKAIKEGKTITFTLENGEKLEIEVLSAGGSA [r2_301_TrROS_Hall],1.49 ± 0.038,2.58 ± 0.03,2.27 ± 0.084
SAGGSMTLEEKSEEDYIIRYVEKGDTYSLIKINPNTGTAEVTTFKPGGVPSKTTYKIPKGKELKVTGSAGGS [r8_11_JUSTAS],-0.0399 ± 0.11,0.726 ± 0.12,0.481 ± 0.079
SAGGSMTLRLPVPEDVEVVEVTAEVPDPETGKVYVFRSRARVVPYKDGVYLTVDLDPDGRSYGFDPSAGGSA [r2_123_TrMRF],1.07 ± 0.096,0.56 ± 0.12,0.835 ± 0.059
SAGGSMTLTFTDPSTGTTTTVTKLPNGKYVVTTTTTTSTNPEVSPTGETVGPATTTTTTVLPPAELSAGGSA [r2_195_JUSTAS],2 ± 0.12,1.79 ± 0.024,1.86 ± 0.065
SAGGSMTLTGESEEEAKALVEALKEELKKKYPEKPNLEIPVKVIIKDPKTGKETEKVFKVKIPIPKSAGGSA [r2_393_JUSTAS],1.04 ± 0.028,1.11 ± 0.09,1.14 ± 0.062
SAGGSMTLTIEVDGKTVEITEVREKEDGEKVVRIRVTTPDGEEKEIEMTLDELAEILGLSKEELEPSAGGSA [r2_262_TrROS_Hall],3.75 ± 0.19,2.67 ± 0.085,3.27 ± 0.18
SAGGSMTTTTEDKGDGRIVTTTIPEEGTVVTTTIFYEPGGPKVETKTTTTPVPPLPSTVVTSPNLASAGGSA [r2_375_JUSTAS],0.572 ± 0.093,1.15 ± 0.13,0.937 ± 0.34
SAGGSMVLLSEETIGDIKIKTYKDPNGGVITVIEKPGERTIEFIYPDGILTIEFPPDGTKKYSFDPIGSAGG [r13_246_JUSTAS],2.01 ± 0.049,2.32 ± 0.071,2.29 ± 0.1
SAGGSMVLTLEEESEEGVLRVTELHFYPGEVTVTTRTFEIAPDGSVRSATESTTVIPVPPSALAEASAGGSA [r2_474_JUSTAS],1.37 ± 0.051,2.33 ± 0.038,1.96 ± 0.1
SAGGSMVLVRVERTPDGTLRVTALFFFDGRLLRVERTFRLAPDGRIVDADVSVEELPVPPSEVPVLSAGGSA [r2_474_TrMRF],3.39 ± 0.16,4.45 ± 0.071,4.11 ± 0.099
SAGGSMVTLTTTETSVEGERTVEVSTLGSKTVTTTFEPESDSSTVTTSPVPPVAGPELLALNLLLLSAGGSA [r2_482_JUSTAS],0.291 ± 0.079,-0.102 ± 0.18,0.189 ± 0.082
SAGGSMVVVPVEVTVPPEELEQYLEDLRAAYEKPGVKVEILPVEREPIRDPAGRVEEVRAKATIKIVPSAGG [r13_707_JUSTAS],-0.511 ± 0.21,0.522 ± 0.042,0.207 ± 0.08

Sequence,folding stability dG unfold [1] [kcal/mol],folding stability dG unfold [2] [kcal/mol],folding stability dG unfold [3] [kcal/mol]
SAGGSMYLIRITVRNKDGEEVLTIERRVRLEDGKSLEEVAEELRRALESLPNLEVVDVEVVPLEELSAGGSA [r2_192_TrROS_Hall],4.3 ± 0.072,3.797 ± 0.019,3.99 ± 0.058
SAGGSNVVEVEVEELPDGTVVLRVRVLRLLPNGELGGVVERPFVFPRELFENIPLEEIVRRAVEEGSAGGSA [r2_421_TrMRF],3.39 ± 0.081,3.758 ± 0.032,3.63 ± 0.072
SAGGSPDPNQKPVTVRVEIMIMRPDPNGKWEMRPIEFEMTIGDVEEFLEELEKEPGYMIMVDIEIYSAGGSA [r2_270_TrROS],2.33 ± 0.13,3.97 ± 0.25,3.65 ± 0.28
SAGGSPEIPKDYEVIEIDAETLPDGSVLIPIIVRDPIIPYYLKMYYRSIPTRWEPISFELIHPDELSAGGSA [r2_371_TrMRF],1.25 ± 0.018,1.61 ± 0.085,1.45 ± 0.057
SAGGSPEQARRWAKYIAETRAGENGWEVEDVEVEQHPGGYVEASIDVQFPDGKKREITITIPPGDPFSAGGS [r8_175_TrROS],-0.149 ± 0.54,-0.361 ± 0.81,-0.447 ± 0.55
SAGGSPFKKETFEFENVKVEVYRLPGPYALALLEVEVSGEPVYYVAVFKLGPDNKLEVVSFGPVDLSAGGSA [r2_171_TrMRF],2.63 ± 0.054,2.85 ± 0.031,2.78 ± 0.053
SAGGSPGIKIEIWFMIMFPVKPDPDNGKPRWYMIMVSPKMWYDPEPGGMQIEIDINIMPLGDPEAFSAGGSA [r2_489_TrROS],3.2 ± 0.16,3.6 ± 0.038,3.41 ± 0.21
SAGGSPIKPITFEFPNIKVTVYRMPNKYIMVHIEFRENGEPYYLMITFKLDPDNKLKATSIGPMPPSAGGSA [r2_171_TrROS],2.69 ± 0.1,4.537 ± 0.037,4.01 ± 0.093
SAGGSPMTITMWFPVDSVEQAKDLINPNFPDYDVKVDNIKPENGWVRVKYTWPNGKPQEREIPIKKSAGGSA [r2_201_TrROS],-0.226 ± 0.33,0.324 ± 0.38,0.147 ± 0.39
SAGGSPNIQVNVERDPKDGYIKFSITVPPGAPNMKIKIAIFENDKIVEKEEITMPPGKTTEYTFKIKSAGGS [r16_412_TrROS],3.29 ± 0.16,4.13 ± 0.065,3.6 ± 0.38
SAGGSPPDNFKMEPIPLRFPNGWKITVMVMRNPDDGRPYVSVEIEPPNDGKEVKFMMPADDLKDFISAGGSA [r2_366_TrROS],1.5 ± 0.054,1.64 ± 0.23,1.66 ± 0.19
SAGGSPPPVEVTPITHINGGEPVPTRVETYPDGTVTVHITLPDGSSGTLPAEELAELLAAPGSLGDFSAGGS [r16_105_JUSTAS],1.53 ± 0.071,-0.455 ± 0.033,0.805 ± 0.045
SAGGSPRLELTVTIPGLGLPVTVRTESVDPVRGYVTATLDFPVPGYRATLVFDPVTGRVYARVEPASAGGSA [r2_147_TrMRF],2.34 ± 0.04,3.13 ± 0.062,2.85 ± 0.12
SAGGSPSITVSESSDPATGTRTLTITVPSSAPSATLNIVVSGSGPPVSSKTVTVPPGTTVTITYTTTSAGGS [r16_412_JUSTAS],2.2 ± 0.06,2.84 ± 0.049,2.61 ± 0.056
SAGGSPSTARTVELEFNPNEVTLEKIKELLEELGFKGITSITVESTPDSLTITLTDPNGAPSVVRVISAGGS [r8_86_JUSTAS],2.05 ± 0.049,2.66 ± 0.075,2.43 ± 0.047
SAGGSPTVTFDPETGAVTVTVNGQTQTAYIPPGDKVTLTVTFQSGGSGVPFTLELEVTVTPPKPLKSAGGSA [r2_116_TrMRF],1.45 ± 0.074,2.48 ± 0.061,2.17 ± 0.12
SAGGSQKLPPGETIPIRIPGFQIEISPDKTTIHVMWPDPDEAKDFLKNLPFPIKIDKVEVMPPEDFSAGGSA [r2_418_TrROS],0.515 ± 0.066,1.01 ± 0.035,0.85 ± 0.11
SAGGSRIEEVAREILEKLPLKPGEPVLVEVEVDFPDGLRIRLKVEAYVDPETGEVHLKVEILEIEPVSAGGS [r16_634_TrMRF],3.24 ± 0.039,2.91 ± 0.064,3.06 ± 0.069
